Experimental data published in patent US20120294797A1 (ALDERBIO, published 2012).

T1: Homo sapiens CGRP-alpha (Calcitonin Gene Related Peptide alpha) (Homo sapiens, C-terminal -NH2 as printed in the sequence (the text says "the N-terminal phenylalanine is amidated"))
T1 construct: Synthetic 37-residue peptide from American Peptides / Bachem; Coated directly on the plate in the recombinant-antibody ELISA; also called human CGRPα; CGRPα
T1 peptide: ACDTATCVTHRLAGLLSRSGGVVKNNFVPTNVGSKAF


Target: T1, Homo sapiens CGRP-alpha (Calcitonin …)
Assay: ELISA: CGRPα coated on plate, antibody dilution series, anti-human IgG Fc-peroxidase detection
Procedure: To characterize recombinant expressed antibodies for their ability to bind to human-CGRPα, antibody-containing solutions were tested by ELISA. All incubations were done at room temperature. Briefly, Immulon IV plagtes (Thermo Scientific) were coated with a CGRPα containing solution ([…] in PBS) for 2 hours. CGRPα-coated plates were then washed three times in wash buffer (PBS, 0.05% Tween-20). The plates were then blocked using a blocking solution (PBS, 0.5% fish skin gelatin, 0.05% Tween-20) for approximately one hour. The blocking solution was then removed and the plates were then incubated with a dilution series of the antibody being tested for approximately one hour. At the end of this incubation, the plate was washed three times with wash buffer and further incubated with a secondary antibody containing solution (Peroxidase conjugated affinipure F(ab′)2 fragment goat anti-human IgG, Fc fragment specific (Jackson Immunoresearch) for approximately 45 minutes and washed three times. At that point a substrate solution (TMB peroxidase substrate, BioFx) and incubated for 3 to 5 minutes in the dark. The reaction was stopped by addition of a HCl containing solution (0.5M) and the plate was read at 450 nm in a plate-reader.

Row | Binder | binding result
1 | Antibody Ab1 (antibody, human IgG1, kappa, N297A, V domains shown, Chimeric (rabbit variable regions, human gamma-1 and kappa constant regions), full length) VH: QSLEESGGRLVTPGTPLTLTCTVSGLDLSSYYMQWVRQAPGKGLEWIGVIGINDNTYYASWAKGRFTISRASSTTVDLKMTSLTTEDTATYFCARGDIWGPGTLVTVSS VL: QVLTQTASPVSAAVGSTVTINCQASQSVYDNNYLAWYQQKPGQPPKQLIYSTSTLASGVSSRFKGSGSGTQFTLTISDLECADAATYYCLGSYDCSSGDCFVFGGGTEVVVKR | binds
2 | Antibody Ab2 (antibody, human IgG1, kappa, N297A, Humanized, full length, human gamma-1 and kappa constant regions) heavy: not shown light: QVLTQSPSSLSASVGDRVTINCQASQSVYDNNYLAWYQQKPGKVPKQLIYSTSTLASGVPSRFSGSGSGTDFTLTISSLQPEDVATYYCLGSYDCSSGDCFVFGGGTKVEIKRTVAAPSVFIFPPSDEQLKSGTASVVCLLNNFYPREAKVQWKVDNALQSGNSQESVTEQDSKDSTYSLSSTLTLSKADYEKHKVYACEVTHQGLSSPVTKSFNRGEC | binds
3 | Antibody Ab3 (antibody, human IgG1, kappa, N297A, Humanized, full length; same variable regions as Ab2, heavy constant region differs (KVDARV instead of KVDKRV)) heavy: not shown light: QVLTQSPSSLSASVGDRVTINCQASQSVYDNNYLAWYQQKPGKVPKQLIYSTSTLASGVPSRFSGSGSGTDFTLTISSLQPEDVATYYCLGSYDCSSGDCFVFGGGTKVEIKRTVAAPSVFIFPPSDEQLKSGTASVVCLLNNFYPREAKVQWKVDNALQSGNSQESVTEQDSKDSTYSLSSTLTLSKADYEKHKVYACEVTHQGLSSPVTKSFNRGEC | binds
4 | Antibody Ab5 (antibody, human IgG1, kappa, N297A, Humanized, full length, human gamma-1 and kappa constant regions) heavy: not shown light: QVLTQSPSSLSASVGDRVTINCQASQSVYHNTYLAWYQQKPGKVPKQLIYDASTLASGVPSRFSGSGSGTDFTLTISSLQPEDVATYYCLGSYDCTNGDCFVFGGGTKVEIKRTVAAPSVFIFPPSDEQLKSGTASVVCLLNNFYPREAKVQWKVDNALQSGNSQESVTEQDSKDSTYSLSSTLTLSKADYEKHKVYACEVTHQGLSSPVTKSFNRGEC | binds
5 | Antibody Ab6 (antibody, human IgG1, kappa, N297A, Humanized, full length; same variable regions as Ab5, heavy constant region differs (KVDARV instead of KVDKRV)) heavy: not shown light: QVLTQSPSSLSASVGDRVTINCQASQSVYHNTYLAWYQQKPGKVPKQLIYDASTLASGVPSRFSGSGSGTDFTLTISSLQPEDVATYYCLGSYDCTNGDCFVFGGGTKVEIKRTVAAPSVFIFPPSDEQLKSGTASVVCLLNNFYPREAKVQWKVDNALQSGNSQESVTEQDSKDSTYSLSSTLTLSKADYEKHKVYACEVTHQGLSSPVTKSFNRGEC | binds
6 | Antibody Ab8 (antibody, human IgG1, kappa, N297A, V domains shown, Humanized, full length, human gamma-1 and kappa constant regions) VH: EVQLVESGGGLVQPGGSLRLSCAVSGIDLSNHYMQWVRQAPGKGLEWVGVVGINGRTYYASWAKGRFTISRDNSKTTVYLQMNSLRAEDTAVYFCARGDIWGQGTLVTVSS VL: QVLTQSPSSLSASVGDRVTINCQASQSVYNYNYLAWYQQKPGKVPKQLIYSTSTLASGVPSRFSGSGSGTDFTLTISSLQPEDVATYYCLGSYDCSTGDCFVFGGGTKVEIKR | binds
7 | Antibody Ab10 (antibody, human IgG1, kappa, N297A, Humanized, full length, human gamma-1 and kappa constant regions) heavy: not shown light: QVLTQSPSSLSASVGDRVTINCQASQNVYNNNYLAWYQQKPGKVPKQLIYSTSTLASGVPSRFSGSGSGTDFTLTISSLQPEDVATYYCLGSYDCSRGDCFVFGGGTKVEIKRTVAAPSVFIFPPSDEQLKSGTASVVCLLNNFYPREAKVQWKVDNALQSGNSQESVTEQDSKDSTYSLSSTLTLSKADYEKHKVYACEVTHQGLSSPVTKSFNRGEC | binds
8 | Antibody Ab12 (antibody, human IgG1, kappa, N297A, V domains shown, Humanized, full length, human gamma-1 and kappa constant regions) VH: EVQLVESGGGLVQPGGSLRLSCAVSGIDVTNYYMQWVRQAPGKGLEWVGVIGVNGKRYYASWAKGRFTISRDNSKTTVYLQMNSLRAEDTAVYFCARGDIWGQGTLVTVSS VL: QVLTQSPSSLSASVGDRVTINCRASQSVYYNNYLAWYQQKPGKVPKQLIYSTSTLASGVPSRFSGSGSGTDFTLTISSLQPEDVATYYCLGSYDCSNGDCFVFGGGTKVEIKR | binds
9 | Antibody Ab14 (antibody, human IgG1, kappa, N297A, Humanized, full length; same variable regions as Ab10, heavy constant region differs (KVDARV instead of KVDKRV)) heavy: not shown light: QVLTQSPSSLSASVGDRVTINCQASQNVYNNNYLAWYQQKPGKVPKQLIYSTSTLASGVPSRFSGSGSGTDFTLTISSLQPEDVATYYCLGSYDCSRGDCFVFGGGTKVEIKRTVAAPSVFIFPPSDEQLKSGTASVVCLLNNFYPREAKVQWKVDNALQSGNSQESVTEQDSKDSTYSLSSTLTLSKADYEKHKVYACEVTHQGLSSPVTKSFNRGEC | binds
10 | Antibody Ab11 (antibody, human IgG1, kappa, N297A, V domains shown, Chimeric (rabbit variable regions, human gamma-1 and kappa constant regions), full length) VH: QSLEESGGRLVTPGGSLTLTCTVSGIDVTNYYMQWVRQAPGKGLEWIGVIGVNGKRYYASWAKGRFTISKTSSTTVDLKMTSLTTEDTATYFCARGDIWGPGTLVTVSS VL: QVLTQTASPVSPAVGSTVTINCRASQSVYYNNYLAWYQQKPGQPPKQLIYSTSTLASGVSSRFKGSGSGTQFTLTISDVQCDDAATYYCLGSYDCSNGDCFVFGGGTEVVVKR | binds
11 | Antibody Ab4 (antibody, human IgG1, kappa, N297A, V domains shown, Chimeric (rabbit variable regions, human gamma-1 and kappa constant regions), full length) VH: QSLEESGGRLVTPGTPLTLTCSVSGIDLSGYYMNWVRQAPGKGLEWIGVIGINGATYYASWAKGRFTISKTSSTTVDLKMTSLTTEDTATYFCARGDIWGPGTLVTVSS VL: QVLTQTPSPVSAAVGSTVTINCQASQSVYHNTYLAWYQQKPGQPPKQLIYDASTLASGVPSRFSGSGSGTQFTLTISGVQCNDAAAYYCLGSYDCTNGDCFVFGGGTEVVVKR | binds
12 | Antibody Ab7 (antibody, human IgG1, kappa, N297A, V domains shown, Chimeric (rabbit variable regions, human gamma-1 and kappa constant regions), full length) VH: QEQLKESGGRLVTPGTSLTLTCTVSGIDLSNHYMQWVRQAPGKGLEWIGVVGINGRTYYASWAKGRFTISRTSSTTVDLKMTRLTTEDTATYFCARGDIWGPGTLVTVSS VL: QVLTQTASPVSAAVGSTVTINCQASQSVYNYNYLAWYQQKPGQPPKQLIYSTSTLASGVSSRFKGSGSGTQFTLTISDVQCDDAATYYCLGSYDCSTGDCFVFGGGTEVVVKR | binds
13 | Antibody Ab9 (antibody, human IgG1, kappa, N297A, V domains shown, Chimeric (rabbit variable regions, human gamma-1 and kappa constant regions), full length) VH: QSLEESGGRLVTPGTPLTLTCTVSGIGLSSYYMQWVRQSPGRGLEWIGVIGSDGKTYYATWAKGRFTISKTSSTTVDLRMASLTTEDTATYFCTRGDIWGPGTLVTVSS VL: QVLTQTPSPVSAAVGSTVTINCQASQNVYNNNYLAWYQQKPGQPPKQLIYSTSTLASGVSSRFRGSGSGTQFTLTISDVQCDDAATYYCLGSYDCSRGDCFVFGGGTEVVVKR | binds
